# Results as given in the RNAGym collection of RNA variant scans (doi:10.1093/molbev/msab373).
# B1: Azoarcus group I ribozyme (parent)
# chain: GUGCCUUGCGCCGGGAAACCACGCAAGGGAUGGUGUCAAAUUCGGCGAAACCUAAGCGCCCGCCCGGGCGUAUGGCAACGCCGAGCCAAGCUUCGGCGCCUGCGCCGAUGAAGGUGUAGAGACUAGACGGCACCCACCUAAGGCAAACGCUAUGGUGAAGGCAUAGUCCAGGGAGUGGCGAAAGUCACACAAACCGG
# Variants of: B1
# Experiment: reverse-splicing fitness (ratio to wild type); higher = more active; in vitro selection; Mg2+ level not given
# Summary of the method: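 An in vitro group I ribozyme library with randomized positions was T7-transcribed and gel-purified. In triplicate, 10 pmol RNA in EPPS pH 7.5 was reacted with 50 pmoles of a 30-nt RNA substrate for 1 h at 37 °C across several added MgCl2 levels (1–48 mM), then stopped with EDTA. Products were reverse transcribed from a substrate-complementary primer, PCR-amplified and sequenced (HiSeq 4000). Fitness is a variant's read proportion after selection over that before, normalised to wild type.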
row,Variant,reverse-splicing fitness
1,C82A A111U A120G A145C C150A C169G,0.00858
2,C82A A111U A120G A145C C150A C169U,0.00834
3,C82A A111U A120G A145C C150A C169A,0.00789
4,C82A A111U A120C A145U C150G U176G,0.00439
5,C82A A111U A120C A145U C150G U176A,0.00752
6,C82A A111U A120C A145U C150G U176C,0.00808
7,C82A A111U A120C A145G U176A,0.0187
8,C82A A111U A120C A145G U176C,0.0361
9,C82A A111U A120C A145G U176G,0.00731
10,C82A A111U A120G A145C C150A C169A U176C,0.00664
11,C82A A111U A120G A145C C150A C169A U176A,0.0128
12,C82A A111U A120G A145C C150A C169A U176G,0.00551
13,C82A A111U A120G A145G C150U C169U U176G,0.00618
14,C82A A111U A120G A145G C150U C169U U176A,0.0181
15,C82A A111U A120G A145G C150U C169U U176C,0.0156
16,C82A A111U A120G A145U C150U C169A,0.0101
17,C82A A111U A120G A145U C150U C169G,0.0104
18,C82A A111U A120G A145U C150U C169U,0.00891
19,C82A A111U A120G A145G C169G U176A,0.021
20,C82A A111U A120G A145G C169G U176C,0.0285
21,C82A A111U A120G A145G C169G U176G,0.00424

row,Variant,reverse-splicing fitness
1,C82A A111U A120C A145U C150U C169G,0.00959
2,C82A A111U A120C A145U C150U C169A,0.0111
3,C82A A111U A120C A145U C150U C169U,0.0116
4,C82A A111U A120C A145U C169G U176A,0.0204
5,C82A A111U A120C A145U C169G U176G,0.00642
6,C82A A111U A120C A145U C169G U176C,0.0253
7,C82A A111U A120G A145C C150G,0.00667
8,C82A A111U A120G A145C C150A,0.00759
9,C82A A111U A120G A145C C150U,0.00935
10,C82A A111U A120C C150G U176A,0.00671
11,C82A A111U A120C C150G U176C,0.0098
12,C82A A111U A120C C150G U176G,0.00421
13,C82A A111U A120G A145C C150G C169U U176C,0.0117
14,C82A A111U A120G A145C C150G C169U U176G,0.00584
15,C82A A111U A120G A145C C150G C169U U176A,0.0132
16,C82A A111U A120C C150G,0.00909
17,C82A A111U A120C C150A,0.0118
18,C82A A111U A120C C150U,0.0206
19,C82A A111U A120G A145G C150G C169A U176A,0.0132
20,C82A A111U A120G A145G C150G C169A U176G,0.00821
21,C82A A111U A120G A145G C150G C169A U176C,0.0133

row,Variant,reverse-splicing fitness
1,C82A A111U A120G A145U C150A U176C,0.0152
2,C82A A111U A120G A145U C150A U176A,0.0128
3,C82A A111U A120G A145U C150A U176G,0.00656
4,C82A A111U A120C C169U,0.0143
5,C82A A111U A120C C169A,0.00982
6,C82A A111U A120C C169G,0.00957
7,C82A A111U A120C C150A C169U,0.0129
8,C82A A111U A120C C150A C169A,0.0122
9,C82A A111U A120C C150A C169G,0.0103
10,C82A A111U A120C A145G C150U C169G U176G,0.00639
11,C82A A111U A120C A145G C150U C169G U176C,0.0201
12,C82A A111U A120C A145G C150U C169G U176A,0.0138
13,C82A A111U A120C A145U C150G C169G,0.00869
14,C82A A111U A120C A145U C150G C169U,0.01
15,C82A A111U A120C A145U C150G C169A,0.00962
16,C82A A111U A120C A145U C169A U176A,0.0227
17,C82A A111U A120C A145U C169A U176C,0.0235
18,C82A A111U A120C A145U C169A U176G,0.00804
19,C82A A111U A120G A145U C150A,0.00949
20,C82A A111U A120G A145U C150U,0.0134
21,C82A A111U A120G A145U C150G,0.00799

row,Variant,reverse-splicing fitness
1,C82A A111U A120G A145G C150U C169A,0.0106
2,C82A A111U A120G A145G C150U C169U,0.0104
3,C82A A111U A120G A145G C150U C169G,0.0105
4,C82A A111U A120G A145U C150G C169G,0.00685
5,C82A A111U A120G A145U C150G C169U,0.00845
6,C82A A111U A120G A145U C150G C169A,0.00884
7,C82A A111U A120C A145U C150G C169U U176A,0.00711
8,C82A A111U A120C A145U C150G C169U U176C,0.0117
9,C82A A111U A120C A145U C150G C169U U176G,0.00741
10,C82A A111U A120C C150U C169A U176G,0.00841
11,C82A A111U A120C C150U C169A U176A,0.0162
12,C82A A111U A120C C150U C169A U176C,0.0174
13,C82A A111U A120C C150A C169G U176A,0.0199
14,C82A A111U A120C C150A C169G U176C,0.0312
15,C82A A111U A120C C150A C169G U176G,0.00775
16,C82A A111U A120G,0.0152
17,C82A A111U A120G A145G C169A,0.00997
18,C82A A111U A120G A145G C169U,0.00913
19,C82A A111U A120G A145G C169G,0.0107
20,C82A A111U A120G A145U C150G C169A U176G,0.00552
